# Data from patent publication US20230094463A1, “ANTIBODIES THAT DISRUPT THE INTERACTION OF GAL3 AND INSULIN RECEPTOR OR INTEGRINS AND METHODS OF USE THEREOF” (TrueBinding, Inc., priority 2019, published 2023).
# B1: TB001: Gal3-targeted Gal3-INSR blocking anti-Gal3 antibody; IMT001-4 used with human IgG4 isotype control (antibody, V domains shown)
# VH: QVQLVQSGSELKKPGASVKVSCKASGYTFTNYGMNWVRQAPGQGLKWMGWINTNTGEPTYVEEFTGRFVFSLETSVSTAYLQISSLKAEDTAVYFCAPYDNFFAYWGQGTTVTVSS
# VL: DIVLTQSPLSLPVTPGEPASISCRSSKSLLYKDGKTYLNWFLQKPGQSPQLLIYLMSTHASGVPDRFSGSGSGTDFTLKISRVEAEDVGVYYCQQLVDYPLTFGGGTKLEIK
# Molecular target: T1, Gal3 peptides (SEQ ID NOs: 3-26) (Homo sapiens, UniProt P17931)
# T1 construct: a library of 24 amino acid peptides representing portions of Gal3; purchased LifeTein custom order
# Assay: Gal3 peptide library binding ELISA (epitope mapping)
molecule,measurement,setting,value
B1,binding to Gal3 Peptide 5,Peptide 5 (SEQ ID NO: 7),bind
same,binding to Gal3 Peptide 6,"Peptide 6 (SEQ ID NO: 8), amino acids 51-70 of Gal3, listed as IMT001 (TB001)",bind and bound
